US10238736B2, “Adjuvant compositions” (priority 2008, dated 2019)

Tested on: OVA-specific CTL responses
Experiment: Relative CTL/cytokine/tetramer responses of mice immunized with OVA
Type: in vivo, C57131/6 mice
Description: Female C57131/6 mice (n=10 per group) with a body weight of about 18-20 g were used in the study. They were immunized via intramuscular (IM) injection into the left tibialis anterior muscle with a total volume of 50 μl on study days 0, 14 and 21.
A dose of the composition comprised, in various combinations, one or more of the following components: • Buffer: NaH2PO4.2H20 (229.32 mg/L), NaCl (1168.00 mg/L) and Na2HPO4 (1144.00 mg/L), dissolved in WFI and sterile filtered with a 0.1 μm filter. • Ovalbumin (OVA—Antigen): 10 μg • CpG ODN: 10 μg • Cholesterol: 1 μg • Quil A: 1 μg • DDA: 0.5 μg • Carbopol: 0.0375% • R1005: 50 μg Vaccine Preparation
Buffer was placed in a 50 ml flask with stir bar and stirred at a constant speed throughout all following steps. The components were added in the following order: Antigen (OVA); CPG ODN; Quil A; cholesterol (drop wise); DDA (drop wise); Carbopol®; and Bay R1005®. The composition was stirred at room temperature (approximately 25° C.) for a minimum of 30 minutes while protected from light by covering with foil. The solution was forced through a 25G needle into a syringe to break any large floating particles to obtain a uniform (cloudy) suspension and transferred to sterile glass vials for storage.
The following samples were collected: • Plasma: 4 weeks after the prime vaccination (1 week after second booster vaccination) • Cytotoxic T lymphocyte (CTL) (6 weeks after the prime vaccination (3 weeks after second booster vaccination) • Cytokine secretion in supernatant (4 weeks after the prime vaccination • 24-hour supernatant (IL-2, IL-4, IL-10, TNF • 72-hour supernatant (IFN-g • Tetramer (4 weeks after the prime vaccination • Cytokine producing T cells (6 weeks after the prime vaccination
The results are provided as a relative score that for each adjuvant showing the effect of the adjuvant. The endpoints are a relative scale based on the sum of the individual Cytotoxic T—Lymphocyte responses.

B1: OVA: Ovalbumin antigen, 10 μg, without adjuvant (protein, UniProt P01012 2-386, looked up)
Ovalbumin: GSIGAASMEFCFDVFKELKVHHANENIFYCPIAIMSALAMVYLGAKDSTRTQINKVVRFDKLPGFGDSIEAQCGTSVNVHSSLRDILNQITKPNDVYSFSLASRLYAEERYPILPEYLQCVKELYRGGLEPINFQTAADQARELINSWVESQTNGIIRNVLQPSSVDSQTAMVLVNAIVFKGLWEKAFKDEDTQAMPFRVTEQESKPVQMMYQIGLFRVASMASEKMKILELPFASGTMSMLVLLPDEVSGLEQLESIINFEKLTEWTSSNVMEERKIKVYLPRMKMEEKYNLTSVLMAMGITDVFSSSANLSGISSAESLKISQAVHAAHAEINEAGREVVGSAEAGVDAASVSEEFRADHPFLFCIKHIATNAVLFFGRCVSP
Relative CTL Responses: Tetramer (relative score, 4 weeks after the prime vaccination): 1
Relative CTL Responses: CTL (relative score, 6 weeks after the prime vaccination): 1
Relative CTL Responses: IL-2 (relative score, 24-hour supernatant): 1
Relative CTL Responses: IFN-g (relative score, 72-hour supernatant): 1
Relative CTL Responses: Total (sum of the individual relative scores): 4
